According to US20140234872A1:

Biological target: GST-SHP-1 ΔN+CSH2 (amino acids 276-end) (human) (UniProt P29350)
Assay: GST pulldown (FIG. 20B)

GST-SHP-1 ΔN+CSH2 (amino acids 276-end) (human), sequence (P29350 276-595, stated change not applied): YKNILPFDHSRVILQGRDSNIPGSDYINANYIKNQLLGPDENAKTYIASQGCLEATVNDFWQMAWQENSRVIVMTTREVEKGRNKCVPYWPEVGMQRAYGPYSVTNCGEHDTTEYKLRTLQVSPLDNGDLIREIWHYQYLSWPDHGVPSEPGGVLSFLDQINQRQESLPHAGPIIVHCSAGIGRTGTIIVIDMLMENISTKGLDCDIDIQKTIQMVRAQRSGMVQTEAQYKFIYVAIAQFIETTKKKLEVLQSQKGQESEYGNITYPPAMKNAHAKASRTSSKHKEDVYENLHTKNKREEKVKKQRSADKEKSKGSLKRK

reduction of binding against full length SHP-1: 80%
B1: His-GIV-CT (aa 1660-1870), wild-type, not phosphorylated (mock- or sham-treated) (protein, not shown: small tags and cut ends)
chain: SETLESRHHKIKTGSPGSEVVTLQQFLEESNKLTSVQIKSSSQENLLDEVMKSLSVSSDFLGKDKPVSCGLARSVSGKTPGDFYDRRTTKPEFLRPGPRKTEDTYFISSAGKPTPGTQGKIKLVKESSLSRQSKDSNPYATLPRASSVISTAEGTTRRTSIHDFLTKDSRLPISVDSPPAAADSNTTAASNVDKVQESRNSKSRSREQQSS
